Results from paper PMC2995306 (Science (New York, N.Y.), 2009).
Where two headings read alike, the source gives them in different places.

Assays:
crystal structure = molecular target: the molecule itself; experiment: crystal structure
[1] = molecular target: the molecule itself

B1: rhesus rotavirus (RRV, serotype G3) VP7 trimer, recombinant (natural protein, UniProt P12476 51-326, looked up)
chain: QNYGINLPITGSMDTAYANSTQEETFLTSTLCLYYPTEAATEINDNSWKDTLSQLFLTKGWPTGSVYFKEYTDIASFSVDPQLYCDYNVVLMKYDATLQLDMSELADLILNEWLCNPMDITLYYYQQTDEANKWISMGSSCTIKVCPLNTQTLGIGCLTTDTATFEEVATAEKLVITDVVDGVNHKLDVTTATCTIRNCKKLGPRENVAVIQVGGSDVLDITADPTTAPQTERMMRINWKKWWQVFYTVVDYVNQIIQAMSKRSRSLNSAAFYYRI
modifications: N-linked glycan at Asn69
- stoichiometry N (crystal structure): 3

B2: disulfide-linked variant of the VP7 trimer (cysteines substituted for Thr276 and Gln305) (natural protein, rhesus rotavirus (RRV, serotype G3), UniProt P12476 51-326, looked up)
chain: QNYGINLPITGSMDTAYANSTQEETFLTSTLCLYYPTEAATEINDNSWKDTLSQLFLTKGWPTGSVYFKEYTDIASFSVDPQLYCDYNVVLMKYDATLQLDMSELADLILNEWLCNPMDITLYYYQQTDEANKWISMGSSCTIKVCPLNTQTLGIGCLTTDTATFEEVATAEKLVITDVVDGVNHKLDVTTATCTIRNCKKLGPRENVAVIQVGGSDVLDITADPCTAPQTERMMRINWKKWWQVFYTVVDYVNCIIQAMSKRSRSLNSAAFYYRI
modifications: intersubunit disulfide between the cysteines at 276 and 305
- stoichiometry N [1]: 3
